# Results published in paper PMC12751603 (Journal of Experimental & Clinical Cancer Research : CR, 2025).
# Where a chain is given by its changes, count along the chain named. Non-standard residues stand in square brackets, D forms with d. No end group written: not given here. pY = N[C@@H](Cc1ccc(OP(=O)(O)O)cc1)C(=O)O
# T1: GST-PTPN9 D335A (UniProt P43378 1-593, D335A)
# T1 sequence (looked up): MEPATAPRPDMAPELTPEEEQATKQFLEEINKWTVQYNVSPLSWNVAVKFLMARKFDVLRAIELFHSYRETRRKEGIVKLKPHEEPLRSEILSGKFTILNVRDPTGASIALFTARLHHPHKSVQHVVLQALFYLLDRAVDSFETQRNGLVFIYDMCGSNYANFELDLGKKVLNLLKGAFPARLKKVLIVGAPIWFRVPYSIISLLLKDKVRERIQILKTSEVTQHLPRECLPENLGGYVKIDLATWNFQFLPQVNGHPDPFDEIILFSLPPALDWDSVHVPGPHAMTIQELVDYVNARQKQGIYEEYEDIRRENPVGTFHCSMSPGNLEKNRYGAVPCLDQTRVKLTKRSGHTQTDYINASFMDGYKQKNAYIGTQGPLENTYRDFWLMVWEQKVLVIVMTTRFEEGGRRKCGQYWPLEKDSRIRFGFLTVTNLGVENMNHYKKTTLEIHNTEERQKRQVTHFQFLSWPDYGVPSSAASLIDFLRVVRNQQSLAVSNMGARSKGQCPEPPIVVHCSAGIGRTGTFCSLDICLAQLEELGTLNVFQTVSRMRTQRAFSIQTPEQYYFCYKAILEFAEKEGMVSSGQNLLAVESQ
# T2: GST-PTPN9 Y333A (UniProt P43378 1-593, Y333A)
# T2 sequence (looked up): T1 sequence (looked up) with Y333A, A335D
# Assays:
# [1] = target: T1, GST-PTPN9 D335A; assay: cell-based or functional assay
# [2] = target: T2, GST-PTPN9 Y333A; assay: cell-based or functional assay
binder,measurement,setting,value
IYETD[pY][pY]RKGGK [p-IGF1R^Y1165/1166 peptide],Kcat of phosphatase activity against the p-IGF1R^Y1165/1166 peptide,[1],1.78 s⁻¹
same,Kcat of phosphatase activity against the p-IGF1R^Y1165/1166 peptide,[2],3.42 s⁻¹
